Reference: patent US20210261663A1 (JIANGSU HENGRUI MEDICINE, published 2021)

Target: T1, human TIM-3 full-length, overexpressed on CHO-S cells (human, UniProt Q8TDQ0 22-301)
T1 construct: also called HAVCR2; Tim-3 overexpressing CHO-S cells
Assay: cell-based ELISA on fixed CHO-S cells overexpressing full-length human TIM-3, HRP secondary antibody, OD450

- EC50 (read off the curve): ~0.1 nM
B1: ABTim-3 (antibody, V domains shown)
VH: QVQLQQPGAELVKPGASVKMSCKASGYTFTSYNMHWIKQTPGQGLEWIGDIYPGNGDTSYNQKFKGKATLTADKSSSTVYMQLSSLTSEDSAVYYCARVGGAFPMDYWGQGTSVTVSS
VL: DIVLTQSPASLAVSLGQRATISCRASESVEYYGTSLMQWYQQKPGQPPKLLIYAASNVESGVPARFSGSGSGTDFSLNIHPVEEDDIAIYFCQQSRKDPSTFGGGTKLEIK
